Assays:
SOX9-NHMG [1] = biological target: T1, SOX9-NHMG (UniProt Q04887 1-181); experiment: EMSA; homodimer, cooperativity factor ~100 (about 10-fold diminished); EMSA: 10 mM Tris-HCl pH 8.0, 0.1 mg/ml BSA, 50 uM ZnCl2, 100 mM KCl, 10% glycerol, 0.1% Igepal CA630, 2 mM beta-mercaptoethanol, 50 nM DNA, 4 h at 4 C; CD: 50 mM phosphate pH 8.0, 4 h at 4 C; settings: protein: recombinant; tags: His6 or His-MBP fusion, removed by TEV; chain copies: 2; label: Cy5 forward strand
SOX8-NHMG;SOX10-DHMG = SOX8-NHMG;SOX10-DHMG (;, UniProt Q04886;Q04888 1-175;61-180, |); experiment: EMSA; heterodimer band; EMSA: 10 mM Tris-HCl pH 8.0, 0.1 mg/ml BSA, 50 uM ZnCl2, 100 mM KCl, 10% glycerol, 0.1% Igepal CA630, 2 mM beta-mercaptoethanol, 50 nM DNA, 4 h at 4 C; CD: 50 mM phosphate pH 8.0, 4 h at 4 C; settings: protein: recombinant;recombinant, tags: His6 or His-MBP fusion, removed by TEV;His6 or His-MBP fusion, copies: 1;1, label: Cy5 forward strand
SOX9-NHMG;SOX10-DHMG = SOX9-NHMG;SOX10-DHMG (;, UniProt Q04887;Q04888 1-181;61-180, |); experiment: as above; settings: protein: recombinant;recombinant, tags: His6 or His-MBP fusion, removed by TEV;His6 or His-MBP fusion, copies: 1;1, label: Cy5 forward strand
SOX9-DHMG;SOX8-NHMG = SOX9-DHMG;SOX8-NHMG (;, UniProt Q04887;Q04886 60-181;1-175, |); experiment: as above; settings: protein: recombinant;recombinant, tags: His6 or His-MBP fusion, removed by TEV;His6 or His-MBP fusion, copies: 1;1, label: Cy5 forward strand
SOX9-NHMG;SOX10-HMG = SOX9-NHMG;SOX10-HMG (;, UniProt Q04887;Q04888 1-181;102-180, |); experiment: EMSA; heterodimer more prominent than SOX9-NHMG homodimer; EMSA: 10 mM Tris-HCl pH 8.0, 0.1 mg/ml BSA, 50 uM ZnCl2, 100 mM KCl, 10% glycerol, 0.1% Igepal CA630, 2 mM beta-mercaptoethanol, 50 nM DNA, 4 h at 4 C; CD: 50 mM phosphate pH 8.0, 4 h at 4 C; settings: protein: recombinant;recombinant; tags: His6 or His-MBP fusion, removed by TEV;N-terminal His6 (Methods, possibly only this construct); copies: 1;1; label: Cy5 forward strand
SOX9-NHMG;SOX8-HMG = SOX9-NHMG;SOX8-HMG (;, UniProt Q04887;Q04886 1-181;97-175, |); experiment: as above; settings: protein: recombinant;recombinant; tags: His6 or His-MBP fusion, removed by TEV;; copies: 1;1; label: Cy5 forward strand
SOX8-NHMG = SOX8-NHMG (UniProt Q04886 1-175); experiment: EMSA; homodimer, as cooperative as SOX9-NHMG; EMSA: 10 mM Tris-HCl pH 8.0, 0.1 mg/ml BSA, 50 uM ZnCl2, 100 mM KCl, 10% glycerol, 0.1% Igepal CA630, 2 mM beta-mercaptoethanol, 50 nM DNA, 4 h at 4 C; CD: 50 mM phosphate pH 8.0, 4 h at 4 C; settings: protein: recombinant; tags: His6 or His-MBP fusion, removed by TEV; chain copies: 2; label: Cy5 forward strand
SOX10-DHMG = SOX10-DHMG (UniProt Q04888 61-180); experiment: as above; settings: protein: recombinant; tags: His6 or His-MBP fusion, removed by TEV; chain copies: 2; label: Cy5 forward strand
SOX9-NHMG;SOX9-HMG = SOX9-NHMG;SOX9-HMG (;, UniProt Q04887;Q04887 1-181;103-181, |); experiment: EMSA; mixed dimer more prominent than SOX9-NHMG homodimer; EMSA: 10 mM Tris-HCl pH 8.0, 0.1 mg/ml BSA, 50 uM ZnCl2, 100 mM KCl, 10% glycerol, 0.1% Igepal CA630, 2 mM beta-mercaptoethanol, 50 nM DNA, 4 h at 4 C; CD: 50 mM phosphate pH 8.0, 4 h at 4 C; settings: protein: recombinant;recombinant; tags: His6 or His-MBP fusion, removed by TEV;; copies: 1;1; label: Cy5 forward strand
SOX10-DHMG;SOX8-HMG = SOX10-DHMG;SOX8-HMG (;, UniProt Q04888;Q04886 61-180;97-175, |); experiment: EMSA; mixed dimer with single DIM; EMSA: 10 mM Tris-HCl pH 8.0, 0.1 mg/ml BSA, 50 uM ZnCl2, 100 mM KCl, 10% glycerol, 0.1% Igepal CA630, 2 mM beta-mercaptoethanol, 50 nM DNA, 4 h at 4 C; CD: 50 mM phosphate pH 8.0, 4 h at 4 C; settings: protein: recombinant;recombinant; tags: His6 or His-MBP fusion, removed by TEV;; copies: 1;1; label: Cy5 forward strand
SOX8-NHMG;SOX9-HMG = SOX8-NHMG;SOX9-HMG (;, UniProt Q04886;Q04887 1-175;103-181, |); experiment: as above; settings: protein: recombinant;recombinant; tags: His6 or His-MBP fusion, removed by TEV;; copies: 1;1; label: Cy5 forward strand
SOX10-DHMG;SOX9-HMG = SOX10-DHMG;SOX9-HMG (;, UniProt Q04888;Q04887 61-180;103-181, |); experiment: as above; settings: protein: recombinant;recombinant; tags: His6 or His-MBP fusion, removed by TEV;; copies: 1;1; label: Cy5 forward strand
SOX10-DHMG;SOX10-HMG = SOX10-DHMG;SOX10-HMG (;, UniProt Q04888;Q04888 61-180;102-180, |); experiment: as above; settings: protein: recombinant;recombinant; tags: His6 or His-MBP fusion, removed by TEV;N-terminal His6 (Methods, possibly only this construct); copies: 1;1; label: Cy5 forward strand
SOX8-NHMG;SOX10-HMG = SOX8-NHMG;SOX10-HMG (;, UniProt Q04886;Q04888 1-175;102-180, |); experiment: as above; settings: protein: recombinant;recombinant; tags: His6 or His-MBP fusion, removed by TEV;N-terminal His6 (Methods, possibly only this construct); copies: 1;1; label: Cy5 forward strand
SOX8-NHMG;SOX8-HMG = SOX8-NHMG;SOX8-HMG (;, UniProt Q04886;Q04886 1-175;97-175, |); experiment: as above; settings: protein: recombinant;recombinant; tags: His6 or His-MBP fusion, removed by TEV;; copies: 1;1; label: Cy5 forward strand
SOX9-NHMG [2] = biological target: T1, SOX9-NHMG; experiment: EMSA; highly cooperative homodimer; cooperativity factor denoted infinite; EMSA: 10 mM Tris-HCl pH 8.0, 0.1 mg/ml BSA, 50 uM ZnCl2, 100 mM KCl, 10% glycerol, 0.1% Igepal CA630, 2 mM beta-mercaptoethanol, 50 nM DNA, 4 h at 4 C; CD: 50 mM phosphate pH 8.0, 4 h at 4 C; settings: protein: recombinant; tags: His6 or His-MBP fusion, removed by TEV; chain copies: 2; label: Cy5 forward strand
SOX9-NHMG [3] = biological target: T1, SOX9-NHMG; experiment: EMSA; highly cooperative homodimer; EMSA: 10 mM Tris-HCl pH 8.0, 0.1 mg/ml BSA, 50 uM ZnCl2, 100 mM KCl, 10% glycerol, 0.1% Igepal CA630, 2 mM beta-mercaptoethanol, 50 nM DNA, 4 h at 4 C; CD: 50 mM phosphate pH 8.0, 4 h at 4 C; settings: protein: recombinant; tags: His6 or His-MBP fusion, removed by TEV; chain copies: 2; label: Cy5 forward strand

Measured: binding result

T1 sequence (Q04887 1-181): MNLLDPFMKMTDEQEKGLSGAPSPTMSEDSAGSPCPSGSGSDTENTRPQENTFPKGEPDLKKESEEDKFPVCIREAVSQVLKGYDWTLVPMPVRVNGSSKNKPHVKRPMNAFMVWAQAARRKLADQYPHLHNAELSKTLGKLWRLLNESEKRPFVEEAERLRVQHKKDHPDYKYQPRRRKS
SOX9-DHMG;SOX8-NHMG, sequence (Q04887 60-181, chain 1 of 2): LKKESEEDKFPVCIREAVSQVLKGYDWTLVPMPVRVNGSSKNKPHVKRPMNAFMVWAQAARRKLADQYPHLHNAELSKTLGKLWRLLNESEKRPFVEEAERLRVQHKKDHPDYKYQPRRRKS
SOX9-DHMG;SOX8-NHMG, sequence (Q04886 1-175, chain 2 of 2): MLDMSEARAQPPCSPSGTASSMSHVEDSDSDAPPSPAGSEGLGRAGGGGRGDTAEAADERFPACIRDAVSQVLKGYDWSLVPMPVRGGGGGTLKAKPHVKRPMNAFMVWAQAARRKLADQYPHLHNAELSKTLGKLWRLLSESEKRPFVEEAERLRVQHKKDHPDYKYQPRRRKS
SOX10-DHMG;SOX9-HMG, sequence (Q04888 61-180, chain 1 of 2): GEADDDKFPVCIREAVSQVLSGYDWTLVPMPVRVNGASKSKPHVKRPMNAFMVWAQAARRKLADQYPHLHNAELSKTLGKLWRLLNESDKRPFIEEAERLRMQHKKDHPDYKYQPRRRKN
SOX10-DHMG;SOX9-HMG, sequence (Q04888 other isoform, or with tags, fused parts or gaps |, chain 2 of 2): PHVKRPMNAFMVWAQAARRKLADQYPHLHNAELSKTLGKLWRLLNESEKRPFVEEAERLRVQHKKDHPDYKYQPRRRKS
SOX10-DHMG;SOX10-HMG, sequence (Q04888 61-180, chain 1 of 2): as the sequence (Q04888 61-180, chain 1 of 2) above
SOX10-DHMG;SOX10-HMG, sequence (Q04888 102-180, chain 2 of 2): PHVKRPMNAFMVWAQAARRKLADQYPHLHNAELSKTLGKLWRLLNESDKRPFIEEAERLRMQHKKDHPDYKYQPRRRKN
SOX10-DHMG, sequence (Q04888 61-180): as the sequence (Q04888 61-180, chain 1 of 2) above
SOX10-DHMG;SOX8-HMG, sequence (Q04888 61-180, chain 1 of 2): as above
SOX10-DHMG;SOX8-HMG, sequence (Q04888 other isoform, or with tags, fused parts or gaps |, chain 2 of 2): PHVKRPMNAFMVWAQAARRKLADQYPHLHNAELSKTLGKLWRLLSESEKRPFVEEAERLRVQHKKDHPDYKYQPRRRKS
SOX9-NHMG;SOX8-HMG, sequence (Q04887 1-181, chain 1 of 2): as the sequence (Q04887 1-181) above
SOX9-NHMG;SOX10-DHMG, sequence (Q04887 1-181, chain 1 of 2): as the sequence (Q04887 1-181) above
SOX9-NHMG;SOX10-DHMG, sequence (Q04887 other isoform, or with tags, fused parts or gaps |, chain 2 of 2): as the sequence (Q04888 61-180, chain 1 of 2) above
SOX9-NHMG;SOX10-HMG, sequence (Q04887 1-181, chain 1 of 2): as the sequence (Q04887 1-181) above
SOX9-NHMG;SOX10-HMG, sequence (Q04887 other isoform, or with tags, fused parts or gaps |, chain 2 of 2): as the sequence (Q04888 102-180, chain 2 of 2) above
SOX9-NHMG;SOX9-HMG, sequence (Q04887 1-181, chain 1 of 2): as the sequence (Q04887 1-181) above
SOX8-NHMG;SOX10-DHMG, sequence (Q04886 1-175, chain 1 of 2): as the sequence (Q04886 1-175, chain 2 of 2) above
SOX8-NHMG;SOX10-DHMG, sequence (Q04888 61-180, chain 2 of 2): as the sequence (Q04888 61-180, chain 1 of 2) above
SOX8-NHMG;SOX10-HMG, sequence (Q04886 1-175, chain 1 of 2): as the sequence (Q04886 1-175, chain 2 of 2) above
SOX8-NHMG;SOX10-HMG, sequence (Q04886 other isoform, or with tags, fused parts or gaps |, chain 2 of 2): as the sequence (Q04888 102-180, chain 2 of 2) above
SOX8-NHMG;SOX9-HMG, sequence (Q04886 1-175, chain 1 of 2): as the sequence (Q04886 1-175, chain 2 of 2) above
SOX8-NHMG;SOX8-HMG, sequence (Q04886 1-175, chain 1 of 2): as the sequence (Q04886 1-175, chain 2 of 2) above
SOX8-NHMG, sequence (Q04886 1-175): as the sequence (Q04886 1-175, chain 2 of 2) above

B1: 2 bp spacer SOX dimer probe (dsDNA)
DNA 1: CGCCGAAAACAAAGGCCTTTGTTTTGCCGC
DNA 2: GCGGCAAAACAAAGGCCTTTGTTTTCGGCG
binds: SOX9-NHMG [1]

B2: 4 bp spacer SOX dimer probe (dsDNA)
DNA 1: GCCGAAAACAAAGGAACCTTTGTTTTGCCG
DNA 2: CGGCAAAACAAAGGTTCCTTTGTTTTCGGC
not listed: SOX9-NHMG [1] | SOX9-NHMG [3]
binds: all other assays above

B3: 1 bp spacer SOX dimer probe (dsDNA)
DNA 1: CCGCCGAACAATGTCATTGTTGCCGCC
DNA 2: GGCGGCAACAATGACATTGTTCGGCGG
binds: SOX9-NHMG [1]

B4: 0 bp spacer SOX dimer probe (dsDNA)
DNA 1: CCGCCGTAACAATGCATTGTTGCCGCC
DNA 2: GGCGGCAACAATGCATTGTTACGGCGG
binds: SOX9-NHMG [1]

B5: 5 bp spacer SOX dimer probe (dsDNA)
DNA 1: GCCGAAAACAAAGGATACCTTTGTTTTGCC
DNA 2: GGCAAAACAAAGGTATCCTTTGTTTTCGGC
binds: SOX9-NHMG [2]

B6: 6 bp spacer SOX dimer probe (dsDNA)
DNA 1: CCGAAAACAAAGGATTACCTTTGTTTTGCC
DNA 2: GGCAAAACAAAGGTAATCCTTTGTTTTCGG
binds: SOX9-NHMG [1]

B7: 3 bp spacer SOX dimer probe (dsDNA)
DNA 1: CGCCGAAAACAAAGGACCTTTGTTTTGCCG
DNA 2: CGGCAAAACAAAGGTCCTTTGTTTTCGGCG
binds: SOX9-NHMG [3]

Source: article PMC4445065, “SOXE transcription factors form selective dimers on non-compact DNA motifs through multifaceted interactions between dimerization and high-mobility group domains”
